{"source": "paper PMC9678781", "about": "(The Journal of Biological Chemistry, 2022)", "binders": {"B1": {"name": "B9-scFv displayed on the 293T cell surface (pBovShow) (scFv)", "VH": "QVQLRESGPSLVKPSQTLSLTCTASGFSLSDKAVGWVRQAPGKALEWLGGIDTGGSTGYNPGLKSRLSITKDNSKSQISLSVSSVTTEDSATYYCTTVHQRDSCPYDSSHSQYCSYGWSCGVYNCRPAVWYRYGSCGTCDNLFSYVDAWGQGLLVTVSS", "VL": "QAVLNQPSSVSGSLGQRVSITCSGSSSNVGNGYVSWYQLIPGSAPRTLIYGDTSRASGVPDRFSGSRSGNTATLTISSLQAEDEADYFCASAEDSSSNAVFGSRTTLTVL"}}, "key": {"[1]": {"molecular_target": "SARS-CoV-2 Spike S1 subdomain (aa 2-682), 8xHis-tagged (SARS-CoV-2 Wuhan-Hu-1, UniProt P0DTC2)", "assay": "flow cytometry on cells", "details": "one partner purified"}, "[2]": {"molecular_target": "SARS-CoV-2 Spike S2 subdomain (aa 686-1211), 8xHis-tagged (SARS-CoV-2 Wuhan-Hu-1, UniProt P0DTC2)", "assay": "flow cytometry on cells", "details": "one partner purified"}}, "data": [{"binder": "B1", "values": [{"measurement": "binding result", "setting": "[1]", "value": "binds"}, {"measurement": "binding result", "setting": "[2]", "value": "no binding (tested: 2 μM)"}]}]}
